The Kd is the concentration at which binding is half-saturated.

Targets include LRP1 CR.6–8 triplet; LRP1 CR.6–7 doublet; LRP1 CR.7–8 doublet (UniProt Q07954).
Holding throughout (assay): SPR
Test [1] has as its target LRP1 CR doublet CR.27-28 (human).
For test [2], the target named is LRP1 CR doublet CR.22-23 (human).
Test [3] concerns the target LRP1 CR doublet CR.5-6 (human).
Test [4] has as its target LRP1 cluster II (CR.3–10) (UniProt Q07954).
The target of test [5] is low density lipoprotein receptor-related protein 1 (LRP1) (UniProt Q07954).
Test [6] concerns the target LRP1 cluster IV (CR.21–31) (UniProt Q07954).

“B domain-deleted factor VIII (recombinant, product C) (natural protein)”: the Kd in test [1] is 0.165 µM; in test [2], 0.172 µM.

Substance “Recombinant full-length factor VIII (natural protein)” yielded a Kd in test [3] of 0.131 µM.

In the case of “Recombinant full-length FVIII (product A) (natural protein)”, the Kd in the test with LRP1 CR.6–8 triplet turned out to be 0.0284 µM; in test [4], 0.0113 µM; with LRP1 CR.6–7 doublet it was 0.0652 µM; in test [5], 0.0228 µM; in the test with LRP1 CR.7–8 doublet, 0.0815 µM; in test [6] it was 0.0196 µM.

Values taken from PMC9804390.
